In the supplement of paper PMC10065799, “High-throughput profiling of sequence recognition by tyrosine kinases and SH2 domains using bacterial peptide display” (eLife, 2023):

Key:
[1] = target: EPHB2 (UniProt P29323); assay: phosphorylation enrichment, bacterial display (enrichment ratio); higher = better substrate or ligand; peptides without Tyr show the background
[2] = system: Fer (mouse); assay: as above
[3] = target: EPHB1 (UniProt P54762); assay: as above
[4] = target: Fes (UniProt P07332); assay: as above
Chain of Fes (P07332 whole entry, looked up): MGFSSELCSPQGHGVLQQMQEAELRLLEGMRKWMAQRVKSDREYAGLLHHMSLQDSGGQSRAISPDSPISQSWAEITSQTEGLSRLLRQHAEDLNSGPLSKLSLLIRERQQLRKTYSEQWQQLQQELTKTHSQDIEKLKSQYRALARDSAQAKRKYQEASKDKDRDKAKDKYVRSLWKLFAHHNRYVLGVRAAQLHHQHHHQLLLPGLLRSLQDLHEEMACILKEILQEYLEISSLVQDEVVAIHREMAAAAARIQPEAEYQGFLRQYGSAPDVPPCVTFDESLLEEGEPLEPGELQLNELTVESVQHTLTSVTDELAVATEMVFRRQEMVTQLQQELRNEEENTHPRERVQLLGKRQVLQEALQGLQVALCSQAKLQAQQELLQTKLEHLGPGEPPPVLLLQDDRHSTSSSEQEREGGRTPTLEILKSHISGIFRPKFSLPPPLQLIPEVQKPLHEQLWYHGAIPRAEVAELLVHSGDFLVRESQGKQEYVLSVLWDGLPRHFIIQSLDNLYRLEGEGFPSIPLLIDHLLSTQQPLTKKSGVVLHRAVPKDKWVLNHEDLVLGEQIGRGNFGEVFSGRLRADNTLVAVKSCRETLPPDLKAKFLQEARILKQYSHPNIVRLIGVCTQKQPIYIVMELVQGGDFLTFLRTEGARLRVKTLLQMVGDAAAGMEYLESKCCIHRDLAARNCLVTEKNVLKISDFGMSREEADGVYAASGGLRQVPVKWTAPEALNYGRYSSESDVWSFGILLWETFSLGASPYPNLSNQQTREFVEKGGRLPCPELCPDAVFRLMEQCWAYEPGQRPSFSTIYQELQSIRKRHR

[5] = target: Fyn (UniProt P06241); assay: as above
Chain of Fyn (P06241 whole entry, looked up): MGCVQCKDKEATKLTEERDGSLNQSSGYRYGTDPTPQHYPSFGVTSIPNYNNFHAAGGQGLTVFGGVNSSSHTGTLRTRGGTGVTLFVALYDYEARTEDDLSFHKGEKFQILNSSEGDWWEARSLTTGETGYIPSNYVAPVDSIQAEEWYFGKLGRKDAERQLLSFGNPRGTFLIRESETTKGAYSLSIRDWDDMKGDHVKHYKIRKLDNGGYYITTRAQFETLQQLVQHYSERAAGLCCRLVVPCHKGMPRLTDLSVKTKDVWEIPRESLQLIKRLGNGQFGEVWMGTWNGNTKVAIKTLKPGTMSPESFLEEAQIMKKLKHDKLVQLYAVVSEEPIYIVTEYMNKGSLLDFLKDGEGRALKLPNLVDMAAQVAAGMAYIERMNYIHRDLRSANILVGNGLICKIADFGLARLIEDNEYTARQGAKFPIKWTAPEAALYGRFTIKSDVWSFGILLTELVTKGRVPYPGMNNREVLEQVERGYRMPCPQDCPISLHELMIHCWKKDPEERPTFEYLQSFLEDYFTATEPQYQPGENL

[6] = target: Jak2 (UniProt O60674); assay: as above
Chain of Jak2 (O60674 whole entry, looked up): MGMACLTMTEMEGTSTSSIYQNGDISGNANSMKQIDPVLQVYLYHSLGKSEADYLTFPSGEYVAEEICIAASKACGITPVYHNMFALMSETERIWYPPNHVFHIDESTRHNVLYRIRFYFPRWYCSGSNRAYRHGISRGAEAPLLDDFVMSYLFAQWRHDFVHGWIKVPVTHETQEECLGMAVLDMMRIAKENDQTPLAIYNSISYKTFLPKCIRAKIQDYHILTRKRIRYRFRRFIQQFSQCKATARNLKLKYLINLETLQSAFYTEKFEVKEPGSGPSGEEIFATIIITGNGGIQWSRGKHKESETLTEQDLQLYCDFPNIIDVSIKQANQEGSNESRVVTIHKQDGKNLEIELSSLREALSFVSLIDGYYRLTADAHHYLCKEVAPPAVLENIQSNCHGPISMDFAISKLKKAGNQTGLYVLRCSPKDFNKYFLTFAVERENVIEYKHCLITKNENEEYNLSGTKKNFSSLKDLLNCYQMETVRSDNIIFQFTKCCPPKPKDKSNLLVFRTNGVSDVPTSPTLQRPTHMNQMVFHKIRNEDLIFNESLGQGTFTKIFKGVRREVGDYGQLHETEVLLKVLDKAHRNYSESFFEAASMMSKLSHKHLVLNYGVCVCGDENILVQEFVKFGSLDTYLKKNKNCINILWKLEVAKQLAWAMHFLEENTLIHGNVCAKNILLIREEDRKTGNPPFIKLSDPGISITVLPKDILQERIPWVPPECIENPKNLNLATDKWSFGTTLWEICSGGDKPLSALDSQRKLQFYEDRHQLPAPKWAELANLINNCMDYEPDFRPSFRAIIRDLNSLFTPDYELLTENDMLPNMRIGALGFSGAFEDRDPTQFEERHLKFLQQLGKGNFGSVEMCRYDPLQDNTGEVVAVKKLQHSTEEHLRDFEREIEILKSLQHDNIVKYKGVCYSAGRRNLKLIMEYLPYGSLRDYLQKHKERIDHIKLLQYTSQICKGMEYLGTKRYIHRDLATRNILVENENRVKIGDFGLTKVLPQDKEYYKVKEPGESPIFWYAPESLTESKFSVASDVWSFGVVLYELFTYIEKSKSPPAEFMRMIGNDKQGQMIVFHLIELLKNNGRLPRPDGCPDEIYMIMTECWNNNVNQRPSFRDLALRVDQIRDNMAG

[7] = system: AncSZ; assay: as above
[8] = target: MERTK (UniProt Q12866); assay: as above
[9] = target: FGFR3 (UniProt P22607); assay: as above
[10] = system: c-Abl (mouse); assay: as above
[11] = target: FGFR1 (UniProt P11362); assay: as above
Chain of FGFR1 (P11362 whole entry, looked up): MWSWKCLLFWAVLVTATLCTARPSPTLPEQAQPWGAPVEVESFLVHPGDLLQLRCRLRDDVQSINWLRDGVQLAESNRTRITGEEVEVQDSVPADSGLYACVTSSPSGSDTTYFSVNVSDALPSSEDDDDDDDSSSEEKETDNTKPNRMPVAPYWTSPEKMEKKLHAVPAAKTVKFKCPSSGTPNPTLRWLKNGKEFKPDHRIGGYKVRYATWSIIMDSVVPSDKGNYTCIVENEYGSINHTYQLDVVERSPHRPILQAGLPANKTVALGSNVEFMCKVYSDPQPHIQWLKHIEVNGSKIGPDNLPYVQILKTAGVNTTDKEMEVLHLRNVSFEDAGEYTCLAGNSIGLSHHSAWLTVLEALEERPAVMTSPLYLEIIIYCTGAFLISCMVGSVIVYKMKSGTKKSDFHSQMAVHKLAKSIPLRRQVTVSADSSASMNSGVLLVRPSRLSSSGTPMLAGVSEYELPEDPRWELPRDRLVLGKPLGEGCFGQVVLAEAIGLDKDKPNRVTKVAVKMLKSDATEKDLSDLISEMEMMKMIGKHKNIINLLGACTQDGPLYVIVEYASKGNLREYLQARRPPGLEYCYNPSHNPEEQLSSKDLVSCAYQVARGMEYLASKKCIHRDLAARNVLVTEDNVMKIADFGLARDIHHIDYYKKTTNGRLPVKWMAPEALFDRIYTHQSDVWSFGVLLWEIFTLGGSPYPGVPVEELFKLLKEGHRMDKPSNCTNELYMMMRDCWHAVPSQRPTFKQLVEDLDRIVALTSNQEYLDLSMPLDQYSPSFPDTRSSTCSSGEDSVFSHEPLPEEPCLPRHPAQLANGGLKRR

[12] = target: Hck (UniProt P08631); assay: as above
Chain of Hck (P08631 whole entry, looked up): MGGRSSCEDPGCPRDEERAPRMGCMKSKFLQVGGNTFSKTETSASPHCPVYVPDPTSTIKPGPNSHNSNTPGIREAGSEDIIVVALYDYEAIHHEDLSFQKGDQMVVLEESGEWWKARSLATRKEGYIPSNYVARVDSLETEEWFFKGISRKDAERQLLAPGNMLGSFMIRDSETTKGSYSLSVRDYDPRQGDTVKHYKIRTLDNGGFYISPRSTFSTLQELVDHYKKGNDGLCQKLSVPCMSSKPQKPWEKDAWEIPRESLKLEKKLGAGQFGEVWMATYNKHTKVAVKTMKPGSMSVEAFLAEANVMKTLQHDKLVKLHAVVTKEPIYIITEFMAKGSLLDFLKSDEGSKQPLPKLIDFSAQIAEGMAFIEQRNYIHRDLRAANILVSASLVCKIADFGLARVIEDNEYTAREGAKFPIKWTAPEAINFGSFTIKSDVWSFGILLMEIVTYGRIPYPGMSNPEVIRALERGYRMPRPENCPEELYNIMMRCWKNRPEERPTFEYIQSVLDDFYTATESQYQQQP

[13] = system: c-Src; assay: as above
[14] = target: SHP2-C SH2; assay: SH2 binding enrichment of the phosphorylated peptide, bacterial display (enrichment ratio); higher = better substrate or ligand; peptides without Tyr show the background
[15] = target: c-Src SH2; assay: as above
[16] = target: Grb2 SH2 (UniProt P62993); assay: as above
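Throughout, for SH2 binding enrichment of the phosphorylated peptide, bacterial display: peptide library displayed on the E. coli surface as eCPX fusions, selected cells deep-sequenced, score is each peptide's frequency after selection divided by its frequency in the input.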
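Throughout, for phosphorylation enrichment, bacterial display: 11-residue human phosphosite peptides and single-mutation variants displayed on the E. coli surface, counted by deep sequencing, each peptide's frequency after selection divided by its frequency in the unselected input library; frequency after pTyr selection over input frequency; kinase dosed for 20-30% of maximal phosphorylation in three min.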

Chain of EPHB1 (P54762 whole entry, looked up): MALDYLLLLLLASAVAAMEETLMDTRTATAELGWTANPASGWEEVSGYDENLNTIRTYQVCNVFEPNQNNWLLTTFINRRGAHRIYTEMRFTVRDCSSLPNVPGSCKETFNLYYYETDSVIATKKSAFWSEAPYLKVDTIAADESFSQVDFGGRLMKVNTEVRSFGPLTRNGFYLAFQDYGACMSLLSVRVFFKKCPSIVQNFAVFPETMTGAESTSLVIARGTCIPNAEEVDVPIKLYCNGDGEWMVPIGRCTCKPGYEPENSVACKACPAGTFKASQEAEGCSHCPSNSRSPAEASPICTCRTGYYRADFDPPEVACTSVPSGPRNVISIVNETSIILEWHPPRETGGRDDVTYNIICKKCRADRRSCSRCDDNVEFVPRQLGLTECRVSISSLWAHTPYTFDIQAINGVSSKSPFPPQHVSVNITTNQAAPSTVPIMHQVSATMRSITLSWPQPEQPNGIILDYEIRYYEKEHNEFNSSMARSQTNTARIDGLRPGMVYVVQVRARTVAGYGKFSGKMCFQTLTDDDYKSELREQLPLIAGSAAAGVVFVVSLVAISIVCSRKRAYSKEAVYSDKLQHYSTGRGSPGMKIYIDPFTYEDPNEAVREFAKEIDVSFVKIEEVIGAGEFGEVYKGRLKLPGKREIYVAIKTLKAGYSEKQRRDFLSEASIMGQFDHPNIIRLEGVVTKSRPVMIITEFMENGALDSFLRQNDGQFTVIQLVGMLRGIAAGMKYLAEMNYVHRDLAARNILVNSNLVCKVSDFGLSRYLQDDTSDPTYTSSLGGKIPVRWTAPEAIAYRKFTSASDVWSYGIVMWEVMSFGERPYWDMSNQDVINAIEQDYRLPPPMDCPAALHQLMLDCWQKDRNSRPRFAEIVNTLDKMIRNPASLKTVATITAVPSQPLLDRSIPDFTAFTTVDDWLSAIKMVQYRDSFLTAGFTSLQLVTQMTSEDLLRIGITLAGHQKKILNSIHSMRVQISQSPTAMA

| Sequence | SH2 binding enrichment [14] | SH2 binding enrichment [15] | SH2 binding enrichment [16] | phosphorylation enrichment [1] | phosphorylation enrichment [2] | phosphorylation enrichment [3] | phosphorylation enrichment [4] | phosphorylation enrichment [5] | phosphorylation enrichment [6] | phosphorylation enrichment [7] | phosphorylation enrichment [8] | phosphorylation enrichment [9] | phosphorylation enrichment [10] | phosphorylation enrichment [11] | phosphorylation enrichment [12] | phosphorylation enrichment [13] |
| --- | --- | --- | --- | --- | --- | --- | --- | --- | --- | --- | --- | --- | --- | --- | --- | --- |
| ADAHHYLCKEV [JAK2_Y382] | 0.626 | 0.518 | 0.849 | 0.752 | 0.488 | 0.851 | 0.879 | 0.485 | 0.837 | 0.678 | 0.429 | 0.554 | 0.644 | 0.588 | 0.549 | 0.543 |
| ADEEEYEIIAA [FEStide_E_2014] | 0.97 | 0.521 | 0.711 | 0.683 | 0.73 | 0.662 | 1.32 | 0.619 | 1.45 | 1.74 | 0.564 | 1.08 | 1.09 | 0.635 | 0.654 | 0.724 |
| ADLVQYFMEHH [PTPN11_Y80_E76D_YF] | 0.961 | 0.612 | 0.902 | 0.545 | 0.46 | 0.654 | 1.06 | 0.784 | 1 | 1.1 | 0.394 | 0.708 | 0.8 | 0.501 | 0.53 | 0.517 |
| ADPQEYIPLPA [JAKtide_2014] | 0.809 | 0.571 | 1 | 0.49 | 0.457 | 0.529 | 0.983 | 0.512 | 0.865 | 0.904 | 0.425 | 0.693 | 0.628 | 0.75 | 0.549 | 0.468 |
| AEMKRYSESSS [RAI14_Y869_A870S] | 0.767 | 0.541 | 0.744 | 0.329 | 0.38 | 0.308 | 0.638 | 0.503 | 0.678 | 0.524 | 0.337 | 0.523 | 0.43 | 0.681 | 0.37 | 0.382 |
| AEPPDYSPVTQ [ADGRG2_Y285_H290Q] | 0.93 | 0.441 | 0.82 | 0.626 | 0.546 | 0.435 | 1.16 | 0.444 | 0.95 | 1.46 | 0.342 | 0.717 | 0.99 | 0.514 | 0.557 | 0.522 |
| AHAGEYGAEAL [HBA1_Y25] | 0.676 | 0.396 | 0.683 | 0.394 | 0.382 | 0.368 | 0.816 | 0.387 | 0.66 | 0.675 | 0.343 | 0.517 | 0.629 | 0.35 | 0.464 | 0.392 |

Second part, led by results:

| SH2 binding enrichment [14] | SH2 binding enrichment [15] | SH2 binding enrichment [16] | Sequence | phosphorylation enrichment [1] | phosphorylation enrichment [2] | phosphorylation enrichment [3] | phosphorylation enrichment [4] | phosphorylation enrichment [5] | phosphorylation enrichment [6] | phosphorylation enrichment [7] | phosphorylation enrichment [8] | phosphorylation enrichment [9] | phosphorylation enrichment [10] | phosphorylation enrichment [11] | phosphorylation enrichment [12] | phosphorylation enrichment [13] |
| --- | --- | --- | --- | --- | --- | --- | --- | --- | --- | --- | --- | --- | --- | --- | --- | --- |
| 0.661 | 0.464 | 0.834 | ACLSLYGGFVE [MVD_Y164_R161L] | 1.13 | 0.817 | 1.21 | 2.02 | 5.43 | 1.92 | 1.67 | 0.607 | 1.31 | 1.46 | 0.681 | 3.83 | 4.75 |
| 0.7 | 0.443 | 1.05 | ADARMYGVLPW [PLP1_Y207] | 2.48 | 0.594 | 0.945 | 0.84 | 9.58 | 0.7 | 0.793 | 3.38 | 0.545 | 1.24 | 0.511 | 9.33 | 6.65 |
| 0.598 | 0.465 | 0.679 | ADGLEYPRTGL [MMUT_Y287_S288P] | 0.55 | 0.47 | 0.425 | 0.835 | 0.508 | 0.495 | 0.722 | 0.319 | 0.59 | 0.528 | 0.414 | 0.47 | 0.288 |
| 0.869 | 0.553 | 0.76 | ADVLDYIKALN [HPRT1_Y81_L78V] | 0.534 | 0.415 | 0.459 | 0.814 | 0.507 | 0.748 | 0.756 | 0.542 | 0.629 | 0.467 | 0.532 | 0.489 | 0.463 |
| 0.698 | 0.446 | 0.807 | AFDNLYYWDQD [ERBB2_Y1221] | 4.41 | 3.07 | 5.88 | 2.42 | 6.31 | 1.55 | 2.31 | 7.32 | 9.6 | 0.81 | 9.23 | 5.36 | 5.67 |
| 0.959 | 0.578 | 0.967 | AFLEDYFTSTE [SRC_Y522] | 0.606 | 0.572 | 0.598 | 1.83 | 0.54 | 1.46 | 1.91 | 0.578 | 1.42 | 1.31 | 1.16 | 0.549 | 0.783 |
| 0.334 | 0.636 | 0.73 | AFRRGYFDEEM [PLEC_Y2971_YF] | 0.616 | 0.445 | 0.514 | 1.29 | 0.622 | 1.7 | 1.58 | 0.551 | 0.673 | 0.763 | 0.633 | 0.599 | 0.6 |
| 0.643 | 0.679 | 0.816 | AGQEEYSAMRD [HRAS_Y64] | 0.547 | 0.429 | 0.507 | 0.931 | 0.462 | 0.788 | 0.879 | 0.418 | 0.591 | 0.678 | 0.477 | 0.498 | 0.456 |
| 0.599 | 0.473 | 0.745 | AHAGEYGEEAL [HBA1_Y25_A27E] | 0.736 | 0.615 | 0.664 | 1.47 | 0.576 | 1.35 | 1.25 | 0.544 | 0.793 | 1.01 | 0.66 | 0.821 | 0.582 |
